Test results as given in PMC6399207.
Values joined by “and” are separate entries in the source; they are usually repeats but may differ in a detail not shown here. Equal entries are not always repeated.

Tests used:
[1] = target: Acinetobacter baumannii glutamate-1-semialdehyde-2,1-aminomutase (HemL), N-terminal His-tagged (Acinetobacter baumannii (strain ATCC 19606)); assay: SEC; individually purified protein alone; Superdex 200 10/300 GL, room temperature, 50 mM Na phosphate pH 8.0, 100 mM NaCl; calibrated with ferritin, aldolase, conalbumin, ovalbumin
[2] = target: Acinetobacter baumannii glutamyl-tRNA reductase (HemA), N-terminal His-tagged (Acinetobacter baumannii (strain ATCC 19606)); assay: SEC; sample of AbHemA and AbHemL co-expressed (pET28hemL_(6xHis)-hemA_(6xHis)) and co-purified on NiNTA; Superdex 200 10/300 GL, room temperature, 0.5 mL/min, 50 mM Na phosphate pH 8.0, 100 mM NaCl; fractions checked by SDS-PAGE; also after 16 h at 4°C without or with 0.1 M sodium citrate, and of a sample grown and purified with citrate
[3] = target: Acinetobacter baumannii glutamyl-tRNA reductase (HemA), N-terminal His-tagged (Acinetobacter baumannii (strain ATCC 19606)); assay: SEC; individually purified protein alone; Superdex 200 10/300 GL, room temperature, 50 mM Na phosphate pH 8.0, 100 mM NaCl; calibrated with ferritin, aldolase, conalbumin, ovalbumin

Row | stoichiometry N [1] | fold increase of the 200 kDa complex fraction with 0.1 M sodium citrate against without citrate [2] [fold] | stoichiometry N [3] | Substance
1 | 2 | 4 | – | Acinetobacter baumannii glutamate-1-semialdehyde-2,1-aminomutase (HemL), N-terminal His-tagged (enzyme)
2 | – | – | 4 and 2 | Acinetobacter baumannii glutamyl-tRNA reductase (HemA), N-terminal His-tagged (enzyme)
